From patent US20070071764A1
Where two headings read alike, the source gives them in different places. Where no end group is shown, it is not given here.

Columns and labels:
Test in all cases: cell-based or functional assay
[1] = target: human Kv1.3 channel (human) (UniProt P22001)
[2] = target: human Kv1.1 channel (human) (UniProt Q09470)
[3] = target: human Kv1.3 channel (human) (UniProt P22001); remark: listed apart in the source

Sequence of human Kv1.3 channel (human) (P22001 whole entry): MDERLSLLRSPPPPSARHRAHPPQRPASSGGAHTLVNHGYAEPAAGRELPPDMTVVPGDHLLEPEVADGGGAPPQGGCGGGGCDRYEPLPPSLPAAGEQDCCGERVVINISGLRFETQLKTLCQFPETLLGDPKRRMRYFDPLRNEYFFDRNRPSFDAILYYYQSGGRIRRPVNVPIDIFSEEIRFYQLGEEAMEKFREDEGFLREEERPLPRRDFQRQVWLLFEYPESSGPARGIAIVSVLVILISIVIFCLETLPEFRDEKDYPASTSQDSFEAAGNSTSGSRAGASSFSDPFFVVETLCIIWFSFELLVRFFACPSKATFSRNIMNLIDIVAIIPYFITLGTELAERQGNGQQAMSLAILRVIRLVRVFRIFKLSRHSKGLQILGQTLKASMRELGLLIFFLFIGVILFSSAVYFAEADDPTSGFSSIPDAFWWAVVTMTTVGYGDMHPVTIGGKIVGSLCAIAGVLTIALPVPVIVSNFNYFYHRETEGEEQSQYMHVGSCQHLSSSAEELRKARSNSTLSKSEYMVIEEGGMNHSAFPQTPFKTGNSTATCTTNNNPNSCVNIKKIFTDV
Sequence of human Kv1.1 channel (human) (Q09470 whole entry): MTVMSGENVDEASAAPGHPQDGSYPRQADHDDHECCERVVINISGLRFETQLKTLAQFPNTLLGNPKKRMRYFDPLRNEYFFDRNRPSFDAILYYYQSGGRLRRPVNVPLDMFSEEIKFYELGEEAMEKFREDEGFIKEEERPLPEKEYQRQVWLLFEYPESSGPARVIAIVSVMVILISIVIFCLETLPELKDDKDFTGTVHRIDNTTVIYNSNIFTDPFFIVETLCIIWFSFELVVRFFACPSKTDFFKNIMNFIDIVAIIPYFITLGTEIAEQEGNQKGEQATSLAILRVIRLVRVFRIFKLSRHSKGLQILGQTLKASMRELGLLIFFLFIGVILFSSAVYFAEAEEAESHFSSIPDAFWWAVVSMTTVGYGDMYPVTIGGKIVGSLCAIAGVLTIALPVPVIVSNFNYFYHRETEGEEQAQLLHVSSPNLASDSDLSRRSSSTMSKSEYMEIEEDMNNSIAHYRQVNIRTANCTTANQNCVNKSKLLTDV

Synthetic OSK1 toxin peptide
hKv1.3: IC50 (whole-cell patch clamp, HEK293) [1]: 39 pM
selectivity ratio hKv1.1/hKv1.3 (IC50 on hKv1.1 over IC50 on hKv1.3) [1]: 4
hKv1.1: IC50 (electrophysiology, HEK293) [2]: 160 pM

PEG-OSK1 (peptide)
peak IC50 (whole-cell patch clamp, HEK293 stably expressing human Kv1.3) [1]: 1.28 nM

Fc-L25-ShK[2-35] peptibody (Fc fusion)
IC50, whole cell patch clamp electrophysiology on HEK293/Kv1.3 cells [1]: 150 pM

Fc-L10-OSK1 (CHO-derived peptibody) (Fc fusion)
hKv1.1: IC50 (electrophysiology, HEK293) [2]: 41600 pM

RSCIDTIPKSRCTAFQCKHSMKYRLSFCRKTCGTC (not fully specified (N-terminus); ends and bridges not checked) [20K PEG-ShK[1-35]]
peak IC50 (whole-cell patch clamp, HEK293 stably expressing human Kv1.3) [3]: 0.169 nM
